B1: Protein phosphatase 2C 37 (Arabidopsis thaliana (Mouse-ear cress)), P49598 (parent)
chain: MAGICCGVVGETEPAAPVDSTSRASLRRRLDLLPSIKIVADSAVAPPLENCRKRQKRETVVLSTLPGNLDLDSNVRSENKKARSAVTNSNSVTEAESFFSDVPKIGTTSVCGRRRDMEDAVSIHPSFLQRNSENHHFYGVFDGHGCSHVAEKCRERLHDIVKKEVEVMASDEWTETMVKSFQKMDKEVSQRECNLVVNGATRSMKNSCRCELQSPQCDAVGSTAVVSVVTPEKIIVSNCGDSRAVLCRNGVAIPLSVDHKPDRPDELIRIQQAGGRVIYWDGARVLGVLAMSRAIGDNYLKPYVIPDPEVTVTDRTDEDECLILASDGLWDVVPNETACGVARMCLRGAGAGDDSDAAHNACSDAALLLTKLALARQSSDNVSVVVVDLRKRRNNQASS
partner: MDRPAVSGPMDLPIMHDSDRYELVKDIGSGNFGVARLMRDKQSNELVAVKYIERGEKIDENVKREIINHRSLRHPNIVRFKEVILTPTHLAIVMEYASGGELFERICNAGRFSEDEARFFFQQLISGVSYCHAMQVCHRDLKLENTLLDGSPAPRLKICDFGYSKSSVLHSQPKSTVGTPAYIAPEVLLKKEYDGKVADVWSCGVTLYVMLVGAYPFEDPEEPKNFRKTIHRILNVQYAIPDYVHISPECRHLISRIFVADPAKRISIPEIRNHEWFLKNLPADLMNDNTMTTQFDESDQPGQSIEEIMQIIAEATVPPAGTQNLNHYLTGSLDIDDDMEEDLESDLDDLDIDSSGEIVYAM
B2: Serine/threonine-protein kinase SRK2E (Arabidopsis thaliana (Mouse-ear cress)), Q940H6 (parent)
chain: B1 partner
partner: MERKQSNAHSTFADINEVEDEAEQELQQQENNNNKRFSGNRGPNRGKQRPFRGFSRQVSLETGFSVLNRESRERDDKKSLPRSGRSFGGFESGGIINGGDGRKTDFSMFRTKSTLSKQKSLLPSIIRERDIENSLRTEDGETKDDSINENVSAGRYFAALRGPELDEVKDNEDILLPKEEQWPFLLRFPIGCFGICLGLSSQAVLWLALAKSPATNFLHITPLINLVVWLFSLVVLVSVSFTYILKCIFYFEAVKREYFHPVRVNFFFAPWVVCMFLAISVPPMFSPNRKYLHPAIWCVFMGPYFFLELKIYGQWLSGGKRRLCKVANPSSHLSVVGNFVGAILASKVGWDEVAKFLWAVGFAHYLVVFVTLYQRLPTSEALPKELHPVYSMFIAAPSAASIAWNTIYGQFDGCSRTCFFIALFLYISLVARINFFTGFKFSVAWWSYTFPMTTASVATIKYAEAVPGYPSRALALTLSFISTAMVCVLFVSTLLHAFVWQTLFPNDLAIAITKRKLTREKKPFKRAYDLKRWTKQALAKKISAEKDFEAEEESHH

Variants of: B1
Conditions: with srk2e_arath SRK2E

| effect of a mutation on the interaction | Variant |
| --- | --- |
| disrupting interaction | MAGICCGVVGETEPAAPVDSTSRASLRRRLDLLPSIKIVADSAVAPPLENCRKRQKRETVVLSTLPGNLDLDSNVRSENKKARSAVTNSNSVTEAESFFSDVPKIGTTSVCGRRRDMEDAVSIHPSFLQRNSENHHFYDVFDGHDCSHVAEKCRERLHDIVKKEVEVMASDEWTETMVKSFQKMDKEVSQRECNLVVNGATRSMKNSCRCELQSPQCDAVGSTAVVSVVTPEKIIVSNCGDSRAVLCRNGVAIPLSVDHKPDRPDELIRIQQAGGRVIYWDGARVLGVLAMSRAIGDNYLKPYVIPDPEVTVTDRTDEDECLILASDGLWDVVPNETACGVARMCLRGAGAGDDSDAAHNACSDAALLLTKLALARQSSDNVSVVVVDLRKRRNNQASS [G139D;G145D] |

Variants of: B2
Conditions: with slac1_arath SLAC1, Q9LD83

| Variant | effect of a mutation on the interaction |
| --- | --- |
| MDRPAVSGPMDLPIMHDSDRYELVKDIGSGNFGVARLMRDKQSNELVAVNYIERGEKIDENVKREIINHRSLRHPNIVRFKEVILTPTHLAIVMEYASGGELFERICNAGRFSEDEARFFFQQLISGVSYCHAMQVCHRDLKLENTLLDGSPAPRLKICDFGYSKSSVLHSQPKSTVGTPAYIAPEVLLKKEYDGKVADVWSCGVTLYVMLVGAYPFEDPEEPKNFRKTIHRILNVQYAIPDYVHISPECRHLISRIFVADPAKRISIPEIRNHEWFLKNLPADLMNDNTMTTQFDESDQPGQSIEEIMQIIAEATVPPAGTQNLNHYLTGSLDIDDDMEEDLESDLDDLDIDSSGEIVYAM [K50N] | disrupting interaction |

From IntAct's records for PubMed 19955427
